The source of these data is paper PMC3334620.

Data set [1] concerns the target T1, Ecm22 (Saccharomyces cerevisiae) (UniProt Q05958).
T1 sequence: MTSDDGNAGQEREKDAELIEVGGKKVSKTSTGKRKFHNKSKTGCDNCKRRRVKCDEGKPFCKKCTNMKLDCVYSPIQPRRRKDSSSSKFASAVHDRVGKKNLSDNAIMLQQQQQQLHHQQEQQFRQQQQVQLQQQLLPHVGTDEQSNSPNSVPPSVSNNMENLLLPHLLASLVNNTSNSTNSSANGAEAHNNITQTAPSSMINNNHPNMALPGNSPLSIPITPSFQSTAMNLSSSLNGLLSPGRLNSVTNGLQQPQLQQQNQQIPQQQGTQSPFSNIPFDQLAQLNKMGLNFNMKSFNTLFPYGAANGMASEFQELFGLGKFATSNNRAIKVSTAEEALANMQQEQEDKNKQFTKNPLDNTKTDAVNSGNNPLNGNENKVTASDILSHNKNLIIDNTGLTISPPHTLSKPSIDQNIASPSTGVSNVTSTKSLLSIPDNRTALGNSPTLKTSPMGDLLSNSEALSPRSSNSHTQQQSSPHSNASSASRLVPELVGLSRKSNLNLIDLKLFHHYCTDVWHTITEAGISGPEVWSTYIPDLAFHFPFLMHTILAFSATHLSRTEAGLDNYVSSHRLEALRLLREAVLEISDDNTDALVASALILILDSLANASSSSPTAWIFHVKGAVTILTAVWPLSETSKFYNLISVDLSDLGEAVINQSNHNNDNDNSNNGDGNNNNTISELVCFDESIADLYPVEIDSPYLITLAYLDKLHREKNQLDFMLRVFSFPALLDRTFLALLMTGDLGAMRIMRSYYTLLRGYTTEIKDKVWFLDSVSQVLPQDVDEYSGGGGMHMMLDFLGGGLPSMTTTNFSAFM
Conditions: 200 nM.

Data set [2] concerns the target T2, Mot3 (Saccharomyces cerevisiae) (UniProt P54785).
T2 sequence: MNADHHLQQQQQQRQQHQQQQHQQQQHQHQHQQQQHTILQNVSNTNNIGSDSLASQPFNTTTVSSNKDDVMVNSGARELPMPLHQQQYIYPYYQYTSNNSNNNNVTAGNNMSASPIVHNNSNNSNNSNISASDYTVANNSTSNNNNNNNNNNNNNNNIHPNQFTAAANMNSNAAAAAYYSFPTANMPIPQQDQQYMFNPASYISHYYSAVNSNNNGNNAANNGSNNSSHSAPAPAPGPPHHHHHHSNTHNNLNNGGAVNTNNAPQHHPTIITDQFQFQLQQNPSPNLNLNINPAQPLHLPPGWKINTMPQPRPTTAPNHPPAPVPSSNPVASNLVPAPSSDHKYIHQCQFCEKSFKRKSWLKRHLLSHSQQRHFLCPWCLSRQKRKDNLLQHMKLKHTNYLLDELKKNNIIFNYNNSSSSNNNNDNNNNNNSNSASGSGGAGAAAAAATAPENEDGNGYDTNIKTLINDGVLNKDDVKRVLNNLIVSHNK
The settings on record: 200 nM.

Data set [3] concerns the target T3, Hmlalpha2 (Saccharomyces cerevisiae) (UniProt P0CY09).
T3 sequence: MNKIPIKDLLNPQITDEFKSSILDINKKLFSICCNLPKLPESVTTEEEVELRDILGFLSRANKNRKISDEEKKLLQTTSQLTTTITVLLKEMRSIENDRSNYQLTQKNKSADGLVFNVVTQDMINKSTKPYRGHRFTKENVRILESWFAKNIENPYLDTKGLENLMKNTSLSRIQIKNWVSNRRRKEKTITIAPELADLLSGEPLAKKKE
The settings on record: 200 nM.

Data set [4] has as its target T4, Gcr1 (Saccharomyces cerevisiae) (UniProt P07261).
T4 sequence: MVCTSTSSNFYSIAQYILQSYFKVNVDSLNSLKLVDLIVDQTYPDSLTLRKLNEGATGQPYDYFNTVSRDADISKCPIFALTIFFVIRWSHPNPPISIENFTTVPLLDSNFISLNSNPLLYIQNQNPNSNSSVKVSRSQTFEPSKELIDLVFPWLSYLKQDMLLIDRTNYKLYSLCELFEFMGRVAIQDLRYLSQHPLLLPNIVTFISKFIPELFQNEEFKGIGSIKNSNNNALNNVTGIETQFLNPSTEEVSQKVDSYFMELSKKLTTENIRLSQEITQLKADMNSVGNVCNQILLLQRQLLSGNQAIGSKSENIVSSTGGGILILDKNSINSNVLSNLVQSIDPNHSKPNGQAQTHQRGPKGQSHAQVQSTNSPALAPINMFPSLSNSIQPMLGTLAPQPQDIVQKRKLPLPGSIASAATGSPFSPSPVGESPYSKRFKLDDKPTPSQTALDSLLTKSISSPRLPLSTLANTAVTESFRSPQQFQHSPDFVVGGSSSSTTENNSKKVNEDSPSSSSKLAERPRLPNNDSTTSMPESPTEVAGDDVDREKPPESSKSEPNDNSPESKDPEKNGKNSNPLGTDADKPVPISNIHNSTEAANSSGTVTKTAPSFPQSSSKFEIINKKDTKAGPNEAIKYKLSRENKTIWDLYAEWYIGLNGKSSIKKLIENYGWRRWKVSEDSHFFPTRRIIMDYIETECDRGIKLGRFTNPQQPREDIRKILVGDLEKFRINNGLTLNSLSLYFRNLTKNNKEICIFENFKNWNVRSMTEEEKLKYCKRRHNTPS
Conditions: 100 nM.

The target in data set [5] is T5, Msn1 (Saccharomyces cerevisiae) (UniProt P22148).
T5 sequence: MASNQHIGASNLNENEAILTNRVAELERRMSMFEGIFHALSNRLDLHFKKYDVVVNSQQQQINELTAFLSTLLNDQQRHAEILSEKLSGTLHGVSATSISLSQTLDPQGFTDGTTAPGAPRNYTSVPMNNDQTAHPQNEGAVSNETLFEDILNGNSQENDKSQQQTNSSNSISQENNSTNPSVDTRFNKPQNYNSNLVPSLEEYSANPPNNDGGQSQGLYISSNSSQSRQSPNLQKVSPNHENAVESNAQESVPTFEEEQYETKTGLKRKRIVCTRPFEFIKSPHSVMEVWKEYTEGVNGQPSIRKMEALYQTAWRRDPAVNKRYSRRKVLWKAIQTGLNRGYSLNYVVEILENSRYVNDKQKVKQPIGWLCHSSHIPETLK
Conditions: 200 nM.

In the case of “CTCGTACC (double strand) [8-mer CTCGTACC]”, in data set [1], the binding signal (PBM E-score (-0.5 to 0.5)) was 0.496. Take “CAGGCACC (double strand) [8-mer CAGGCACC]”: in data set [2], the binding signal (PBM E-score (-0.5 to 0.5)) amounted to 0.496.

Regarding “CTTTACAC (double strand) [8-mer CTTTACAC]”, in data set [3], the binding signal (PBM E-score (-0.5 to 0.5)) is 0.489.

Turning to “CGTGCCTA (double strand) [8-mer CGTGCCTA]”, the binding signal (PBM E-score (-0.5 to 0.5)) in data set [2] worked out at 0.495. In data set [4], “GGATTCCA (double strand) [8-mer GGATTCCA]” displayed a binding signal (PBM E-score (-0.5 to 0.5)) of 0.476. Consider “AGGCACGC (double strand) [8-mer AGGCACGC]”, for which the binding signal (PBM E-score (-0.5 to 0.5)) in data set [2] was determined as 0.496. In data set [3], “TGTGTAAA (double strand) [8-mer TGTGTAAA]” displayed a binding signal (PBM E-score (-0.5 to 0.5)) of 0.489. Turning to “GAATGTCC (double strand) [8-mer GAATGTCC]”, in data set [5], the binding signal (PBM E-score (-0.5 to 0.5)) worked out at 0.494. Consider “AGGAACGA (double strand) [8-mer AGGAACGA]”, for which the binding signal (PBM E-score (-0.5 to 0.5)) in data set [1] stood at 0.495. For “CGGCTTCC (double strand) [8-mer CGGCTTCC]”, in data set [4], the binding signal (PBM E-score (-0.5 to 0.5)) came out at 0.472.

Sequence “ACATGTAA (double strand) [8-mer ACATGTAA]” registered a binding signal (PBM E-score (-0.5 to 0.5)) in data set [3] of 0.488. Still for that read-out and setting: the same measure for “ATTACACG (double strand) [8-mer ATTACACG]”: 0.495. Regarding “GCAGGCAA (double strand) [8-mer GCAGGCAA]”, the binding signal (PBM E-score (-0.5 to 0.5)) in data set [2] was found to be 0.493. In data set [3], “TATGTAAA (double strand) [8-mer TATGTAAA]” yielded a binding signal (PBM E-score (-0.5 to 0.5)) of 0.49. Sequence “AGGAAGCC (double strand) [8-mer AGGAAGCC]” came in with a binding signal (PBM E-score (-0.5 to 0.5)) in data set [4] of 0.487. The sequence “CGTGTAAA (double strand) [8-mer CGTGTAAA]” registered a binding signal (PBM E-score (-0.5 to 0.5)) in data set [3] of 0.493.

In data set [2], “ACAGGCAC (double strand) [8-mer ACAGGCAC]” displayed a binding signal (PBM E-score (-0.5 to 0.5)) of 0.495. As for “GCTTCCTA (double strand) [8-mer GCTTCCTA]”, the binding signal (PBM E-score (-0.5 to 0.5)) in data set [4] turned out to be 0.468.

Sequence “AATTACAT (double strand) [8-mer AATTACAT]” yielded a binding signal (PBM E-score (-0.5 to 0.5)) in data set [3] of 0.489. The sequence “GCAGGCAC (double strand) [8-mer GCAGGCAC]” came in with a binding signal (PBM E-score (-0.5 to 0.5)) in data set [2] of 0.497. Regarding “CCATGTAA (double strand) [8-mer CCATGTAA]”, the binding signal (PBM E-score (-0.5 to 0.5)) in data set [3] came out at 0.486. On to “GGAATCCC (double strand) [8-mer GGAATCCC]”, for which the binding signal (PBM E-score (-0.5 to 0.5)) in data set [4] amounted to 0.464. Consider “CATGTAAA (double strand) [8-mer CATGTAAA]”, for which, in data set [3], the binding signal (PBM E-score (-0.5 to 0.5)) was determined as 0.491. With “ATTACATG (double strand) [8-mer ATTACATG]”, in data set [3], the binding signal (PBM E-score (-0.5 to 0.5)) was 0.495. For the sequence “GTAGGCAC (double strand) [8-mer GTAGGCAC]”, the binding signal (PBM E-score (-0.5 to 0.5)) in data set [2] came out at 0.495.

Sequence “CCGTGTAA (double strand) [8-mer CCGTGTAA]” returned a binding signal (PBM E-score (-0.5 to 0.5)) in data set [3] of 0.486. On to “CAGCGTCC (double strand) [8-mer CAGCGTCC]”, for which, in data set [4], the binding signal (PBM E-score (-0.5 to 0.5)) is 0.465. Same read-out and setting: the same measure for “AGCATCCT (double strand) [8-mer AGCATCCT]”: 0.465. On to “CAGGCACA (double strand) [8-mer CAGGCACA]”, for which the binding signal (PBM E-score (-0.5 to 0.5)) in data set [2] worked out at 0.493. Turning to “AGGATGCC (double strand) [8-mer AGGATGCC]”, the binding signal (PBM E-score (-0.5 to 0.5)) in data set [4] was 0.47. With “GGTACGAC (double strand) [8-mer GGTACGAC]”, the binding signal (PBM E-score (-0.5 to 0.5)) in data set [1] is 0.495. In the case of “GAGCTTCC (double strand) [8-mer GAGCTTCC]”, the binding signal (PBM E-score (-0.5 to 0.5)) in data set [4] is 0.469. Consider “ACGTGCCT (double strand) [8-mer ACGTGCCT]”, for which the binding signal (PBM E-score (-0.5 to 0.5)) in data set [2] was found to be 0.494.

On to “AAGGCACC (double strand) [8-mer AAGGCACC]”, for which, in data set [2], the binding signal (PBM E-score (-0.5 to 0.5)) was found to be 0.493.

In data set [4], “GGCATCCA (double strand) [8-mer GGCATCCA]” came in with a binding signal (PBM E-score (-0.5 to 0.5)) of 0.469. Same read-out and setting: the same measure for “GGCTTCCA (double strand) [8-mer GGCTTCCA]”: 0.483. In turn, “ATTACACA (double strand) [8-mer ATTACACA]” came in with a binding signal (PBM E-score (-0.5 to 0.5)) in data set [3] of 0.492. “GTGCCTGA (double strand) [8-mer GTGCCTGA]”: the binding signal (PBM E-score (-0.5 to 0.5)) in data set [2] was 0.493. For “CATGTTAA (double strand) [8-mer CATGTTAA]”, the binding signal (PBM E-score (-0.5 to 0.5)) in data set [3] was 0.489. In the case of “CTCGTTCC (double strand) [8-mer CTCGTTCC]”, the binding signal (PBM E-score (-0.5 to 0.5)) in data set [1] turned out to be 0.496. Sequence “AAAGGCAC (double strand) [8-mer AAAGGCAC]” had a binding signal (PBM E-score (-0.5 to 0.5)) in data set [2] of 0.495.

For “CAGGCACG (double strand) [8-mer CAGGCACG]”, the binding signal (PBM E-score (-0.5 to 0.5)) in data set [2] turned out to be 0.496. “GGAAGCCA (double strand) [8-mer GGAAGCCA]”: the binding signal (PBM E-score (-0.5 to 0.5)) in data set [4] is 0.48. With “ATTACATA (double strand) [8-mer ATTACATA]”, the binding signal (PBM E-score (-0.5 to 0.5)) in data set [3] stood at 0.488.

Turning to “TCGTGTAA (double strand) [8-mer TCGTGTAA]”, the binding signal (PBM E-score (-0.5 to 0.5)) in data set [3] was found to be 0.49.

Consider “AAGGCACG (double strand) [8-mer AAGGCACG]”, for which the binding signal (PBM E-score (-0.5 to 0.5)) in data set [2] was 0.496. The sequence “AGGTACGA (double strand) [8-mer AGGTACGA]” had a binding signal (PBM E-score (-0.5 to 0.5)) in data set [1] of 0.495. Sequence “GGAATCCA (double strand) [8-mer GGAATCCA]” had a binding signal (PBM E-score (-0.5 to 0.5)) in data set [4] of 0.473. As for “GAAGGCAC (double strand) [8-mer GAAGGCAC]”, in data set [2], the binding signal (PBM E-score (-0.5 to 0.5)) turned out to be 0.495. In turn, “CGGAACGA (double strand) [8-mer CGGAACGA]” had a binding signal (PBM E-score (-0.5 to 0.5)) in data set [1] of 0.493. With “GGAAGCCC (double strand) [8-mer GGAAGCCC]”, in data set [4], the binding signal (PBM E-score (-0.5 to 0.5)) amounted to 0.473. Same read-out and setting: the same measure for “AGCTTCCT (double strand) [8-mer AGCTTCCT]”: 0.485.
